Experimental findings from patent CN101248088A (LILLY CO ELI, dated 2008) are described below.

The target of assay [1] is 人IL-23 (human IL-23, p19/p40 heterodimer) (human) (UniProt P29460). In words: cell-based or functional assay.
The target is the same in assay [2]. Description: SPR (BIAcore), antibody captured on protein A CM5 chip, human IL-23 in flow, HBS-EP pH 7.4, 25 °C.
Assay [3] addresses T1, 人IL-23 (human IL-23, p19/p40 heterodimer) (human, UniProt P29460 23-328).
T1 construct: Bought human IL-23 (R&D Systems); also called hIL-23; 成熟IL-23
T1 sequence 1: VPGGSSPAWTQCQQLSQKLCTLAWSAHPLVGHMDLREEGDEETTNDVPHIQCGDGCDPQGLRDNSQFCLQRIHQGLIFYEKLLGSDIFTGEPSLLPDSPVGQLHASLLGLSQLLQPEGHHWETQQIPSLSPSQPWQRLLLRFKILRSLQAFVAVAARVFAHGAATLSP
T1 sequence 2: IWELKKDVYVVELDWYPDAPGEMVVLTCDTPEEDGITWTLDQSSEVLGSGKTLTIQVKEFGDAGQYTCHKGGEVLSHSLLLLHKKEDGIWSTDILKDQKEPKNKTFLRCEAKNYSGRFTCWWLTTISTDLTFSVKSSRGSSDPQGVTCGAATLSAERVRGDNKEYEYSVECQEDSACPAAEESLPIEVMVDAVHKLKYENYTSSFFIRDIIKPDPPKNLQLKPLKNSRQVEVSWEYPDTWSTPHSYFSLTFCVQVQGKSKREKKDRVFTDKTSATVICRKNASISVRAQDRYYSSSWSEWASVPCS
In words: SPR (BIAcore). A general note: In SPR one partner is held on a chip, and binding of the other changes the refractive index at the surface.

Assay [4] concerns the target T1, 人IL-23 (human IL-23, p19/p40 …). Description: cell-based or functional assay.

For “MAB1290 (小鼠抗人IL-23单克隆抗体, 安迪生物科技 R&D Systems) (antibody)”, the IC50, 小鼠脾细胞测定法 (IL-23-stimulated IL-17 secretion of mouse splenocytes) in assay [1] was determined as 2800 pM. In assay [2], the Kd (usually a measure of binding affinity in units of concentration) was determined as 21400 pM, the koff (usually the rate constant with which the complex falls apart) is 0.000768 s⁻¹ and the kon (commonly the rate constant with which the complex forms) was 36800 M⁻¹ s⁻¹.

B1: MAbQF20 (antibody, V domains shown)
VH: QVQLVQSGAEVKKPGASVKVSCKVSGKTFWSYGINWVRQAPGKGLEWMGYIYIGTGYTEPNPKYKGRVTMTEDTSTDTAYMELSSLRSEDTAVYYCATIGGYYGNFADWGQGTTVTVSS
VL: DVVMTQSPLSLPVTLGQPASISCRSSQSLLISGGKTYLNWFQQRPGQSPRRLIYLVSKLDQGVPDRFSGSGSGTDFTLKISRVEAEDVGVYYCWQGTYFPLTFGQGTKLEIK
notes: Humanised antibody
Molecule B1 gave a Kd in assay [3] of less than 160 pM. Moreover, in assay [4], the “IC50, 小鼠脾细胞测定法” value was less than 20 pM and the “IC50, 小鼠脾细胞测定法 (IL-23-stimulated IL-17 secretion of mouse splenocytes)” value stood at 2 pM.

B2: MAbQF37 (antibody, V domains shown)
VH: QVQLVQSGAEVKKPGASVKVSCKVSGKTFWSYGINWVRQAPGKGLEWMGYIYIGTGYTEPNPKYKGRVTMTEDTSTDTAYMELSSLRSEDTAVYYCATIGGYYGNFDQWGQGTTVTVSS
VL: DVVMTQSPLSLPVTLGQPASISCRSSQSLLISGGKTYLNWFQQRPGQSPRRLIYLVSKLDQGVPDRFSGSGSGTDFTLKISRVEAEDVGVYYCWQGTYFPLTFGQGTKLEIK
notes: Humanised antibody
Take B2: the Kd in assay [3] is less than 160 pM. In assay [4], the “IC50, 小鼠脾细胞测定法” value was less than 20 pM and the “IC50, 小鼠脾细胞测定法 (IL-23-stimulated IL-17 secretion of mouse splenocytes)” value stood at 2 pM.
